Test results reported in the supplement of paper PMC11811203.

B1: THAP1; numbered along this chain (parent)
chain: MVQSCSAYGCKNRYDKDKPVSFHKFPLTRPSLCKEWEAAVRRKNFKPTKYSSICSEHFTPDCFKRECNNKLLKENAVPTIFLCTEPHDKKEDLLEPQEQLPPPPLPPPVSQVDAAIGLLMPPLQTPVNLSVFCDHNYTVEDTMHQRKRIHQLEQQVEKLRKKLKTAQQRCRRQERQLEKLKEVVHFQKEKDDVSERGYVILPNDYFEIVEVPA

Variants of: B1
Experiment: THAP1 transcriptional activity (GFP+/GFP- enrichment relative to wild-type constructs) (ratio to WT); higher = more THAP1 activity (PSMB5 reporter activation)
Conditions: with PSMB5 promoter-GFP reporter
Procedure, shortened: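 A site-saturation library of human THAP1 (residues 2–213, each changed to all 20 amino acids) was transduced by lentivirus at MOI ~0.3, in duplicate, into THAP1-knockout HEK-293T cells carrying mClover3 knocked in at endogenous PSMB5. After five days, BFP+ cells were sorted into GFP-dim and GFP-bright bins, and variants were counted by Illumina sequencing of genomic DNA amplicons. Activity is the replicate-mean bright/dim read fold change divided by the mean of wild-type synonymous constructs.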
MVQSCSAYGCKNRYDKDKPVSFHKFPLTRPSLCKEWEAAVRRKNFKPTKYSSICSEHFTPDCFKRECNNKLLKENAVPTIFLCTEPHDKKEDLLEPQEQLPPPPLPPPVSQVDAAIGLLMPPLQTWVNLSVFCDHNYTVEDTMHQRKRIHQLEQQVEKLRKKLKTAQQRCRRQERQLEKLKEVVHFQKEKDDVSERGYVILPNDYFEIVEVPA [P126W] showed a THAP1 transcriptional activity of 0.207.
MVQSCSAYGCKNRYDKDKPVSFHKFPLTRPSLCKEWEAAVRRKNFKPTKYSSICSEHFTPDCFKRECNNKLLKENAVPTIFLCTEPHDKKEDLLEPQEQLPPPPLPPPVSQVDAAIGLLMPPLQTPVNLSVFCDHNYTVEDTMHQRKRIHQLEQQVEKLRKKLKTAQQRCRRQERQLEKLKEVVHFQKEKDDVSERGYVILPMDYFEIVEVPA [N203M] gave a THAP1 transcriptional activity of 0.934.
Variant MVQSCSAYGCKNRYDKDKPVSFHKFPLTRPSLCKEWEAAVRRKNFKPTKYSSICSEHFTPDCFKRECNNKLLKENAVPTIFLCTEPHDKKEDLLEPQEQLPPPPLPPPVSQVDAAIGLLMPPLQTPVNLSVFCDHNYTVEDTMHQRKRIHQLEQQVEKLRKKLKTAQQRCRRQERQLEKLKEGVHFQKEKDDVSERGYVILPNDYFEIVEVPA [V183G] has a THAP1 transcriptional activity of 0.742.
Work on MVQSCSAYGCKNRYDKDKPVSFHKFPLTRPSLCKEWEAAVRRKNFKPTKYSSICSEHFTPDCFKRECNNKLLKENAVPTIFLCTEPHDAKEDLLEPQEQLPPPPLPPPVSQVDAAIGLLMPPLQTPVNLSVFCDHNYTVEDTMHQRKRIHQLEQQVEKLRKKLKTAQQRCRRQERQLEKLKEVVHFQKEKDDVSERGYVILPNDYFEIVEVPA [K89A] yielded a THAP1 transcriptional activity of 0.888.
MVQSCSAYGCKNRYDKDKPVSFHKFPLTRPSLCKEWEAAVRRKNFKPTKYSSICTEHFTPDCFKRECNNKLLKENAVPTIFLCTEPHDKKEDLLEPQEQLPPPPLPPPVSQVDAAIGLLMPPLQTPVNLSVFCDHNYTVEDTMHQRKRIHQLEQQVEKLRKKLKTAQQRCRRQERQLEKLKEVVHFQKEKDDVSERGYVILPNDYFEIVEVPA [S55T] gave a THAP1 transcriptional activity of 0.128.
MVQSCSAYGCKNRYDKDKPVSFHKFPLTRPSLCKEWEAAVRRKNFKPTKYSSICSEHFTPDCFKRECNNKLLKENAVPTIFLCTEPHDKKEDLLEPQEQLPPPPLPPPVSQVDAAIGLLMPPLQTPVNLSVFDDHNYTVEDTMHQRKRIHQLEQQVEKLRKKLKTAQQRCRRQERQLEKLKEVVHFQKEKDDVSERGYVILPNDYFEIVEVPA [C133D] showed a THAP1 transcriptional activity of 0.73.
MVQSCSAYGCKNRYDKDKPVSFHKFPLTRPSLCKEWEAAVRRKNFKPTKYSSICSEHFTPDCFKRECNNKLLKENAVPTIFLCTEPHDKKEDLLEPQEQLPPPPLPPPVSQVDAAIGLLMPPLQTPVNLSVFCDHNYTVEGTMHQRKRIHQLEQQVEKLRKKLKTAQQRCRRQERQLEKLKEVVHFQKEKDDVSERGYVILPNDYFEIVEVPA [D141G] showed a THAP1 transcriptional activity of 0.809.
MVQSCSAYGCKNRYDKDKPVSFHKFPLTRPSLCKEWEAAVRRKNFKPTKYSSICSEHFTPDCFKRECNNKLLKENAVPTIFLCTEPHDKKEDLLEPQEQLPPPPLPPPVSQVDAAIGLLMPPIQTPVNLSVFCDHNYTVEDTMHQRKRIHQLEQQVEKLRKKLKTAQQRCRRQERQLEKLKEVVHFQKEKDDVSERGYVILPNDYFEIVEVPA [L123I] gave a THAP1 transcriptional activity of 0.913.
MVQSCSAYGCKNRYDKDKPVSFHKFPLTRPSLCKEWEAAVRRKNFKPTKYSSICSEHFTPDCFKRECNNKLLKENAVPTIFLCTEPHDKKEDLLEPQEQLPPPPLPPPVSQVDAAIGLLMPPLQTPVNLSVFCDHNYTVEDTMHQRKVIHQLEQQVEKLRKKLKTAQQRCRRQERQLEKLKEVVHFQKEKDDVSERGYVILPNDYFEIVEVPA [R148V] was tested, and the THAP1 transcriptional activity was 0.412.
For MVQSCSAYGCKNRYDKDKPVSFHKFPLTRPSLCKEWEAAVRRKNFKPTKYSSICSEHFTPDCFKRECNNKLLKENAVPTIFLCTEPHDKKEDLLEPQEQLPPPPLPPPVSQVDATIGLLMPPLQTPVNLSVFCDHNYTVEDTMHQRKRIHQLEQQVEKLRKKLKTAQQRCRRQERQLEKLKEVVHFQKEKDDVSERGYVILPNDYFEIVEVPA [A115T], the THAP1 transcriptional activity was 0.594.
For MVQSCSAYGCKNRYDKDKPVSFHKFPLTRPSLCKEWEAAVRRKNFKPTKYSSICSEHFTPDCFKRECNNKLLKENAVPTIFLCTEPHDKKEDLLEPQEQLPPPPLPPPVSQVDAAIGLLMPPLQTPVNLSVFCGHNYTVEDTMHQRKRIHQLEQQVEKLRKKLKTAQQRCRRQERQLEKLKEVVHFQKEKDDVSERGYVILPNDYFEIVEVPA [D134G], the THAP1 transcriptional activity was 0.148.
MVQSCSAYGCKNRYDKDKPVSFHKFPLTRPSLCKEWEPAVRRKNFKPTKYSSICSEHFTPDCFKRECNNKLLKENAVPTIFLCTEPHDKKEDLLEPQEQLPPPPLPPPVSQVDAAIGLLMPPLQTPVNLSVFCDHNYTVEDTMHQRKRIHQLEQQVEKLRKKLKTAQQRCRRQERQLEKLKEVVHFQKEKDDVSERGYVILPNDYFEIVEVPA [A38P] showed a THAP1 transcriptional activity of 0.09.
With MVQSCSAYGCKNRYDKDKPVSFHKFPLTRPSLCKEWEAAVRRKNFKPTKYSSICSEHFTPDCFKRECNNKLLKENAVPTIFLCTEPHDKKEDLLEPQEQLPPPPLPPPVSQVDAAIGLLMPPLQTPVNLSVFCDHNYTVEDTMHQRKRIHQLEQQVEKLRKKLKTAQQRCRRQERQLEKLKEVVHFEKEKDDVSERGYVILPNDYFEIVEVPA [Q187E] the THAP1 transcriptional activity was 0.824.
In the case of MVQSCSAYGCKNRYDKDKPVSFHYFPLTRPSLCKEWEAAVRRKNFKPTKYSSICSEHFTPDCFKRECNNKLLKENAVPTIFLCTEPHDKKEDLLEPQEQLPPPPLPPPVSQVDAAIGLLMPPLQTPVNLSVFCDHNYTVEDTMHQRKRIHQLEQQVEKLRKKLKTAQQRCRRQERQLEKLKEVVHFQKEKDDVSERGYVILPNDYFEIVEVPA [K24Y], the THAP1 transcriptional activity is reported as 0.11.
MVQSCSAYGCKNRYDKDKPVSFHKFPLTRPSLCKEWEAAVRRKNFKPTKYSSICSEHVTPDCFKRECNNKLLKENAVPTIFLCTEPHDKKEDLLEPQEQLPPPPLPPPVSQVDAAIGLLMPPLQTPVNLSVFCDHNYTVEDTMHQRKRIHQLEQQVEKLRKKLKTAQQRCRRQERQLEKLKEVVHFQKEKDDVSERGYVILPNDYFEIVEVPA [F58V] was tested, and the THAP1 transcriptional activity was 0.115.
MVQSCSAYGCKNRYDKDKPVSFHKFPLTRPSLCKEWEAAVRRKNFKPTKYSSICSEHFTPDCFKRECNNKLLKENAVPTIFLCTEPHDKKEDLLEPQEQLPPPPLPPPVSQVNAAIGLLMPPLQTPVNLSVFCDHNYTVEDTMHQRKRIHQLEQQVEKLRKKLKTAQQRCRRQERQLEKLKEVVHFQKEKDDVSERGYVILPNDYFEIVEVPA [D113N] gave a THAP1 transcriptional activity of 0.681.
Work on MVQSCSAYGCKNRYDKDKPVSFHKFPLTQPSLCKEWEAAVRRKNFKPTKYSSICSEHFTPDCFKRECNNKLLKENAVPTIFLCTEPHDKKEDLLEPQEQLPPPPLPPPVSQVDAAIGLLMPPLQTPVNLSVFCDHNYTVEDTMHQRKRIHQLEQQVEKLRKKLKTAQQRCRRQERQLEKLKEVVHFQKEKDDVSERGYVILPNDYFEIVEVPA [R29Q] yielded a THAP1 transcriptional activity of 0.36.
In the case of MVQSCSAYGCKNRYDKDKPVSFHKFPLTRPSLCKEWEAAVRRKNFKPTKYSSICSEQFTPDCFKRECNNKLLKENAVPTIFLCTEPHDKKEDLLEPQEQLPPPPLPPPVSQVDAAIGLLMPPLQTPVNLSVFCDHNYTVEDTMHQRKRIHQLEQQVEKLRKKLKTAQQRCRRQERQLEKLKEVVHFQKEKDDVSERGYVILPNDYFEIVEVPA [H57Q], the THAP1 transcriptional activity is reported as 0.0983.
For MVQSCSAYGCKNRYDKDKPVSFHKFPLTRPSLCKEWEAAVRRKNFKPTKYSSICSEHFTPDCFKRECNNKLLKENAVPTIFLCTEPHDKKEDLLEPQEQLPPPPLPPPVSQVDAAIGLLMPPLQFPVNLSVFCDHNYTVEDTMHQRKRIHQLEQQVEKLRKKLKTAQQRCRRQERQLEKLKEVVHFQKEKDDVSERGYVILPNDYFEIVEVPA [T125F], the THAP1 transcriptional activity was 0.212.
With MVQSCSAYGCKNRYDKDKPVSFHKFPLTRPSLCKEWEAAVRRKNFKPTKYSSICSEHFTPDCFKRECNNKLLKENAVPTIFLCTEPHDKKEDLLEPQEQLPPPPLPPPVSQVDAAIGLLMPPLQTPVNLSVFCDHNYTVEDTMHQRKRIHQLEQQVEKLRKKLKTAQQRCRRQERQLEKLKEVVHFQKEKDRVSERGYVILPNDYFEIVEVPA [D192R] the THAP1 transcriptional activity was 0.932.
MVQSCSAYGCKNRYDKDKPVSFHKFPLTRPSLCKEWEAAVRRKNFKPTKYSSICSEHFTPDCFKRECNNKLLKENAVPTIFLCTEPHDKKEDLLEPQEQLPPPGLPPPVSQVDAAIGLLMPPLQTPVNLSVFCDHNYTVEDTMHQRKRIHQLEQQVEKLRKKLKTAQQRCRRQERQLEKLKEVVHFQKEKDDVSERGYVILPNDYFEIVEVPA [P104G] showed a THAP1 transcriptional activity of 1.2.
Work on MVQSCSAYGCKNRYDKDKPVSFHKFPLTRPSLCKEWEAAVRRKNFKPTKYSSICSEHFTPDCFKRECNNKLLKENAVPTIFLCTEPHDKKEDLLEPQEQLPPPPLPPPVSQVDAAIGLLMPPLQTPVNLSVFCDHNYTVEDTMHQRKRIHQLEQQVEKLRKKLKTAQQRCRRQERQLEKLKEVVHFQKEKDDVSERGYVILPNDYFHIVEVPA [E207H] yielded a THAP1 transcriptional activity of 0.501.
For MVSSCSAYGCKNRYDKDKPVSFHKFPLTRPSLCKEWEAAVRRKNFKPTKYSSICSEHFTPDCFKRECNNKLLKENAVPTIFLCTEPHDKKEDLLEPQEQLPPPPLPPPVSQVDAAIGLLMPPLQTPVNLSVFCDHNYTVEDTMHQRKRIHQLEQQVEKLRKKLKTAQQRCRRQERQLEKLKEVVHFQKEKDDVSERGYVILPNDYFEIVEVPA [Q3S], the THAP1 transcriptional activity was 0.278.
Variant MVQSCSAYGCKNRYDKDKPVSFHKFPLTRPSLCKEWEAAVRRKNFKPTKYSSICSEHFTPQCFKRECNNKLLKENAVPTIFLCTEPHDKKEDLLEPQEQLPPPPLPPPVSQVDAAIGLLMPPLQTPVNLSVFCDHNYTVEDTMHQRKRIHQLEQQVEKLRKKLKTAQQRCRRQERQLEKLKEVVHFQKEKDDVSERGYVILPNDYFEIVEVPA [D61Q] has a THAP1 transcriptional activity of 0.282.
Variant MVQSCSAYGCKNRYDKDKPVSFHKFPLTRPSLCKEWEAAVQRKNFKPTKYSSICSEHFTPDCFKRECNNKLLKENAVPTIFLCTEPHDKKEDLLEPQEQLPPPPLPPPVSQVDAAIGLLMPPLQTPVNLSVFCDHNYTVEDTMHQRKRIHQLEQQVEKLRKKLKTAQQRCRRQERQLEKLKEVVHFQKEKDDVSERGYVILPNDYFEIVEVPA [R41Q] has a THAP1 transcriptional activity of 0.878.
MVQSCSAYGCKNRYDKDKPVSFHKFPLTRPSLCKEWEAAVGRKNFKPTKYSSICSEHFTPDCFKRECNNKLLKENAVPTIFLCTEPHDKKEDLLEPQEQLPPPPLPPPVSQVDAAIGLLMPPLQTPVNLSVFCDHNYTVEDTMHQRKRIHQLEQQVEKLRKKLKTAQQRCRRQERQLEKLKEVVHFQKEKDDVSERGYVILPNDYFEIVEVPA [R41G] showed a THAP1 transcriptional activity of 1.52.
Work on MVQSCSAYGCKNRYDKDKPVSFHKFPLTRPSLCKEWEAAVRRKNFKPTKYSSICSEHFTPDCFKRECNNKLLKENAVPTIFLCTEPHDKKEDLLEPQEQLPPPPLPPPVSQVDAAIGLLMPPLQTPVNLSVFCDHNYTVEDTMHQRKRIHQLEQQVEKLRKKLKTAQQRCRRQERQLEKLKEVVHFQKEKDDVSARGYVILPNDYFEIVEVPA [E195A] yielded a THAP1 transcriptional activity of 0.865.
Variant MVQSCSAYGCKNRYDKDKPVIFHKFPLTRPSLCKEWEAAVRRKNFKPTKYSSICSEHFTPDCFKRECNNKLLKENAVPTIFLCTEPHDKKEDLLEPQEQLPPPPLPPPVSQVDAAIGLLMPPLQTPVNLSVFCDHNYTVEDTMHQRKRIHQLEQQVEKLRKKLKTAQQRCRRQERQLEKLKEVVHFQKEKDDVSERGYVILPNDYFEIVEVPA [S21I] has a THAP1 transcriptional activity of 0.128.
